According to paper PMC4593670:

Target: F-ATPase from Paracoccus denitrificans (nine core subunits α, β, γ, δ, ε, a, b, b' and c) (Paracoccus denitrificans (strain PD1222)) (UniProt A1B8N8)
Assay: reverse-phase LC-MS of the subunits of the purified complex; subunits of F-ATPase I fractionated by reverse-phase chromatography, online electrospray MS; amounts estimated from peak areas of the ion traces, ζ against the δ-subunit

Sequence of UniProt A1B8N8 (A1B8N8 whole entry, looked up, stated change not applied, tested part not stated): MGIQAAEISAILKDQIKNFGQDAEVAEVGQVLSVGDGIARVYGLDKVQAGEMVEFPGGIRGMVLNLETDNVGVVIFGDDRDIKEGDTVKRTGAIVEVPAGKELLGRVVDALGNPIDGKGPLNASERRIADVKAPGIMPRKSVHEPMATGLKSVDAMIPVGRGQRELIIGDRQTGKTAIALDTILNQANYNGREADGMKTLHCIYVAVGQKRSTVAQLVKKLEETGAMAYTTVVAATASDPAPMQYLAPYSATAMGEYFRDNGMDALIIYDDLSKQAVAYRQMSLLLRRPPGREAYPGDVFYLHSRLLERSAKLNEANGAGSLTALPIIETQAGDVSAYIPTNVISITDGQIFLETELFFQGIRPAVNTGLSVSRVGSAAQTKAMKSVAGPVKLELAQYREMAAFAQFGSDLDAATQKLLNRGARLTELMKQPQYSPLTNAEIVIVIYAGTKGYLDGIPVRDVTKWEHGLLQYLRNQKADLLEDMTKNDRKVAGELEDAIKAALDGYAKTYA

- stoichiometry N (ζ-protein per F-ATPase complex): 1
Substance: ζ inhibitor protein of the F-ATPase from Paracoccus denitrificans (natural protein)
